According to US20260109758A1 (BIOSION, published 2026):

Tests used:
[1] = target: T1, recombinant human TSLP-his (human, UniProt Q969D9 29-159, biotin-labeled in the ELISAs); assay: SPR Biacore; TSLP-his amine-coupled to CM5 chip, antibody as analyte; 1:1 Langmuir fit
T1 construct: In-house made; not shown: His tag at the C-terminus
Description: Un-reacted moieties on the biosensor surface were blocked with ethanolamine. Then, serially diluted purified bispecific antibodies and the controls (2-fold serial dilution in HBS-EP⁺ buffer starting at 100 nM) were respectively flowed onto the chip at a flow rate of 30 μL/min. The antigen-antibody association kinetics was followed for 4 minutes and the dissociation kinetics was followed for 13 minutes.

[2] = target: T2, recombinant human IL4Rα-his (human, UniProt P24394 26-231, limits assumed, biotin-labeled in the capture ELISA); assay: SPR Biacore T200; antibody captured on anti-human IgG CM5 chip, IL4Rα-his as analyte; 1:1 Langmuir fit
T2 construct: In-house made; not shown: His tag at the C-terminus
Description: The goat anti-human IgG (GE healthcare, Cat #BR100839, Human Antibody Capture Kit) was covalently linked to a CM5 chip (carboxy methyl dextran coated chip) via primary amines, using a standard amine coupling kit provided by Biacore (GE healthcare, Pittsburgh, PA, USA). Un-reacted moieties on the biosensor surface were blocked with ethanolamine. Then, purified bispecific antibodies of the disclosure at the concentration of 66.67 nM and the controls at 10 μg/mL, were flowed onto the chip at a flow rate of 10 μL/min. Then, serially diluted recombinant human IL4Rα-his (in house made, IL4Rα of SEQ ID NO: 33 with His tag at C-terminus) in HBS EP buffer (provided by Biacore) was flowed onto the chip at a flow rate of 30 μL/min. The association and dissociation curves were fit to a 1:1 Langmuir binding model using BIAcore evaluation software.

[3] = target: T2, recombinant human IL4Rα-his; assay: dual-binding ELISA: coated human IL4Rα-his, antibody titrated, detection with biotin human TSLP-his and SA-HRP; signal needs both antigens bound
Description: For the dual-binding ELISA, 96-well ELISA plates were firstly coated with 100 μL 1 μg/mL human IL4Rα-his protein (IL4Rα of SEQ ID NO: 33 with His tag at C terminus, prepared in-house) in PBS overnight at 4° C. ELISA plates were washed 4 times with wash buffer (PBS+0.05% Tween-20, PBST) and then blocked with 200 μL/well blocking buffer (5% w/v non-fatty milk in PBST) for 2 hours at 37° C. […] ELISA plates were washed again and incubated with SA-HRP (100 μl/well) for 40 minutes at 37° C. After the final wash, 100 μL/well TMB (Innoreagents) was added. The reaction was stopped 15 minutes later at room temperature with 50 μL/well 1M H₂SO₄, and the absorbance was read on a microplate reader using dual wavelength mode with 450 nm for TMB and 630 nm as the reference wavelength. The OD (450-630) values were plotted against antibody concentration. Data was analyzed using Graphpad Prism and EC₅₀ values were reported.

[4] = target: T1, recombinant human TSLP-his; assay: capture ELISA: antibody captured on anti-human IgG Fc F(ab')2, biotin human TSLP-his, SA-HRP
Description: Briefly, 96-well micro plates were coated with 100 μL 2 μg/mL AffiniPure F(ab′)₂ Fragment Goat Anti-Human IgG, Fey fragment specific (Jackson Immuno Research, Cat #109-006-008) in PBS and incubated overnight at 4° C. Plates were washed 4 times with wash buffer (PBS+0.05% Tween-20, PBST) and then blocked with 200 μL/well blocking buffer (5% w/v non-fatty milk in PBST) for 2 hours at 37° C. […] After the final wash, the plates were incubated with 100 μL/well TMB (Innoreagents). The reaction was stopped 15 minutes later at room temperature with 50 μL/well 1M H₂SO₄, and the absorbance of each well was read on a microplate reader using dual wavelength mode with 450 nm for TMB and 630 nm as the reference wavelength. The OD (450-630) values were plotted against antibody concentration. Data was analyzed using Graphpad Prism and EC₅₀ values were reported.

Kd [1] | koff [1] | kon [1] | Kd [2] | koff [2] | kon [2] | EC50 [3] | EC50 [4] | Binder
< 0.0145 nM | < 1e-05 s⁻¹ | 692000 M⁻¹ s⁻¹ | 2.93 nM | 0.000161 s⁻¹ | 54900 M⁻¹ s⁻¹ | 0.0779 nM | 0.106 nM | BSI-502-005 (bispecific antibody, human IgG1, kappa, hu1C5F12E9-V8 IgG with an anti-IL4R scFv (VH-VL) at the C-terminus of the heavy chain; AQQ and YTE already stand in the entry) heavy: QVQLVQSGAEVKKPGASVKVSCKASGYTFTTYWMHWVRQAPGQGLEWMGVIDPSDSDTTYNQKFKGRVTMTRDTSTSTVYMELSSLRSEDTAVYYCTRSLDGYYDYWGQGTLVTVSSASTKGPSVFPLAPSSKSTSGGTAALGCLVKDYFPEPVTVSWNSGALTSGVHTFPAVLQSSGLYSLSSVVTVPSSSLGTQTYICNVNHKPSNTKVDKKVEPKSCDKTHTCPPCPAPEAQGGPSVFLFPPKPKDTLYITREPEVTCVVVDVSHEDPEVKFNWYVDGVEVHNAKTKPREEQYNSTYRVVSVLTVLHQDWLNGKEYKCQVSNKALPAPIEKTISKAKGQPREPQVYTLPPSRDELTKNQVSLTCLVKGFYPSDIAVEWESNGQPENNYKTTPPVLDSDGSFFLYSKLTVDKSRWQQGNVFSCSVMHEALHNHYTQKSLSLSPGKGGGGSGGGGSEVQLVESGGGLVQPGGSLRLSCAASGFTFSTYGMSWVRQAPGKGLVWVATINSNGGSTSYPDSVKGRFTISRDNAKNTLYLQMNSLRAEDTAVYYCARFFRFRNAMDYWGQGTLVTVSSGGGGSGGGGSGGGGSGGGGSDIQMTQSPSSLSASVGDRVTITCRTSENIYSYLAWYQQKPGKAPKFLVYNAKTLAEGVPSRFSGSGSGTDFTLTISSLQPEDFATYYCQHYYGPPTWTFGQGTKVEIK light: DIQMTQSPSSLSASVGDRVTITCRPTENIYSYLAWYQQKPGKAPKLLIYFARTLAEGVPSRFSGSGSGTDFTLTISSLQPEDFATYYCQHHYGTPWTFGGGTKVEIKRTVAAPSVFIFPPSDEQLKSGTASVVCLLNNFYPREAKVQWKVDNALQSGNSQESVTEQDSKDSTYSLSSTLTLSKADYEKHKVYACEVTHQGLSSPVTKSFNRGEC
0.0084 nM | 3.87e-06 s⁻¹ | 460000 M⁻¹ s⁻¹ | 2.22 nM | 0.000399 s⁻¹ | 180000 M⁻¹ s⁻¹ | 0.0944 nM | 0.0844 nM | BSI-502-007 (bispecific antibody, human IgG1, kappa, huC2C1A1A1-V15 IgG with an anti-TSLP scFv (VH-VL) at the N-terminus of the heavy chain; AQQ and YTE already stand in the entry) heavy: QVQLVQSGAEVKKPGASVKVSCKASGYTFTTYWMHWVRQAPGQGLEWMGVIDPSDSDTTYNQKFKGRVTMTRDTSTSTVYMELSSLRSEDTAVYYCTRSLDGYYDYWGQGTLVTVSSGGGGSGGGGSGGGGSGGGGSDIQMTQSPSSLSASVGDRVTITCRPTENIYSYLAWYQQKPGKAPKLLIYFARTLAEGVPSRFSGSGSGTDFTLTISSLQPEDFATYYCQHHYGTPWTFGGGTKVEIKGGGGSGGGGSEVQLVESGGGLVQPGGSLRLSCAASGFTFSTYGMSWVRQAPGKGLVWVATINSNGGSTSYPDSVKGRFTISRDNAKNTLYLQMNSLRAEDTAVYYCARFFRFRNAMDYWGQGTLVTVSSASTKGPSVFPLAPSSKSTSGGTAALGCLVKDYFPEPVTVSWNSGALTSGVHTFPAVLQSSGLYSLSSVVTVPSSSLGTQTYICNVNHKPSNTKVDKKVEPKSCDKTHTCPPCPAPEAQGGPSVFLFPPKPKDTLYITREPEVTCVVVDVSHEDPEVKFNWYVDGVEVHNAKTKPREEQYNSTYRVVSVLTVLHQDWLNGKEYKCQVSNKALPAPIEKTISKAKGQPREPQVYTLPPSRDELTKNQVSLTCLVKGFYPSDIAVEWESNGQPENNYKTTPPVLDSDGSFFLYSKLTVDKSRWQQGNVFSCSVMHEALHNHYTQKSLSLSPG light: DIQMTQSPSSLSASVGDRVTITCRTSENIYSYLAWYQQKPGKAPKFLVYNAKTLAEGVPSRFSGSGSGTDFTLTISSLQPEDFATYYCQHYYGPPTWTFGQGTKVEIKRTVAAPSVFIFPPSDEQLKSGTASVVCLLNNFYPREAKVQWKVDNALQSGNSQESVTEQDSKDSTYSLSSTLTLSKADYEKHKVYACEVTHQGLSSPVTKSFNRGEC
0.00758 nM | 4.43e-06 s⁻¹ | 585000 M⁻¹ s⁻¹ | 3.15 nM | 0.000436 s⁻¹ | 138000 M⁻¹ s⁻¹ | 0.107 nM | 0.0742 nM | BSI-502-008 (bispecific antibody, human IgG1, kappa, huC2C1A1A1-V15 IgG with an anti-TSLP scFv (VL-VH) at the N-terminus of the heavy chain; AQQ and YTE already stand in the entry) heavy: DIQMTQSPSSLSASVGDRVTITCRPTENIYSYLAWYQQKPGKAPKLLIYFARTLAEGVPSRFSGSGSGTDFTLTISSLQPEDFATYYCQHHYGTPWTFGGGTKVEIKGGGGSGGGGSGGGGSGGGGSQVQLVQSGAEVKKPGASVKVSCKASGYTFTTYWMHWVRQAPGQGLEWMGVIDPSDSDTTYNQKFKGRVTMTRDTSTSTVYMELSSLRSEDTAVYYCTRSLDGYYDYWGQGTLVTVSSGGGGSGGGGSEVQLVESGGGLVQPGGSLRLSCAASGFTFSTYGMSWVRQAPGKGLVWVATINSNGGSTSYPDSVKGRFTISRDNAKNTLYLQMNSLRAEDTAVYYCARFFRFRNAMDYWGQGTLVTVSSASTKGPSVFPLAPSSKSTSGGTAALGCLVKDYFPEPVTVSWNSGALTSGVHTFPAVLQSSGLYSLSSVVTVPSSSLGTQTYICNVNHKPSNTKVDKKVEPKSCDKTHTCPPCPAPEAQGGPSVFLFPPKPKDTLYITREPEVTCVVVDVSHEDPEVKFNWYVDGVEVHNAKTKPREEQYNSTYRVVSVLTVLHQDWLNGKEYKCQVSNKALPAPIEKTISKAKGQPREPQVYTLPPSRDELTKNQVSLTCLVKGFYPSDIAVEWESNGQPENNYKTTPPVLDSDGSFFLYSKLTVDKSRWQQGNVFSCSVMHEALHNHYTQKSLSLSPG light: DIQMTQSPSSLSASVGDRVTITCRTSENIYSYLAWYQQKPGKAPKFLVYNAKTLAEGVPSRFSGSGSGTDFTLTISSLQPEDFATYYCQHYYGPPTWTFGQGTKVEIKRTVAAPSVFIFPPSDEQLKSGTASVVCLLNNFYPREAKVQWKVDNALQSGNSQESVTEQDSKDSTYSLSSTLTLSKADYEKHKVYACEVTHQGLSSPVTKSFNRGEC
